# From the RNAGym collection of RNA variant scans (doi:10.1073/pnas.2313332121)
# This sample holds only a part of the variants without activity.
# B1: TPR 5TU (parent)
# chain: GGAUCUUCUCGAUCUAACAAAAAAGACAAAUCUGCCACAAAGCUUGAGAGCAUCUUCGGAUGCAGAGGCGGCAGCCUUCGGUGGCGCGAUAGCGCCAACGUUCUCAACUAUGACACGCAAAACGCGUGCUCCGUUGAAUGGAGUUUAUCAUG
# Variants of: B1
# Experiment: polymerase ribozyme fitness, log enrichment relative to wild type (log ratio); higher = more active; in vitro selection for triplet polymerase activity
# Summary of the method: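 Frozen incubation at −7 °C formed the core of a single, triplicate in vitro selection round applied to PCR-built, transcribed mutant libraries of each subunit of a heterodimeric triplet polymerase ribozyme. Extended constructs were gel-excised, captured with streptavidin beads and amplified by RT-PCR, and input and output libraries were Illumina-sequenced with a filter of ≥10 input reads and ≥1 read per output. Fitness is the logarithm of genotype enrichment relative to wild-type enrichment, with inverse-variance-weighted replicate averaging, and the logarithm is base 2.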
row,Variant,polymerase ribozyme fitness (log ratio)
1,GGAUCUUCUCGAUCUAACAACAAAGACAAAUCUGCCACACAGCUUGAAAGCAUCUUCGGAUGCAGAGGCGGCAGCCUUCGGUGGAGCGAUAGCCCCAACGUUCUCAACUAUGACACGCAAAACGCGUGCUCCGUUGAAUGGAGUUUAUCAUG,-2.1
2,GGAUCUUCUCGAUCUAACAACAAAGACUAAUCUGCCACAAAGCUUGAGAGCAUCUUCGCAUGCAGAGGCGGCAGCCUUCGGUGGCGCGAUAGCGCCGACGUUCUCAACUAUGACACGCAAAACGCGUGCUCCGCUGAAUGGAGUUUAUCAUG,≤ -4.2
3,GGAUCUUCUCGAUCUAACAACAAAGACAAAUCUGCCACAACGCUUGAGAGCAUCUUCGGAUGCAGAGGCGGCAGCCUUCGGUGGCGCGAUAGCGCCAACGUUCUCAACUAUGACGCGCAAAACGCGUGCUCCGUUGAAUGGAGUUUAUCAUG,-1.51
4,GGAUCUUCUCGAUCUAACAACAAAGAAAAAUCUGCCACAUAGCUUAAGAGCAUCUUUGGAUGCAGAGGCGGCAGCCUUCGGUGGCGGGAUAGCGCCAACGUUCUCAACUAUGACACGCAAAACGCAUGCUCCGUUGAAUGGAGUUUAUCAUG,≤ -4.2
5,GGAUCUUCUCGAUCUAACAACAAAGACAAAUCUGCCACAAAGCUUGAGAGCAUCUUCGGAUGCAGAGGCGGCAGCCUUCGGUGGCGCGAUAGCGCCAACGUUCUCAACUCUGACACGCAAAACGCGUGCUCCGUUGAAUGGAGUUUAUCAUG,≤ -4.2
6,GGAUCUUCUCGAUCUAACAACAAAGACAAAUCUGCCACAUAGCUUGAGAGCAUCUUCGGAUGCAGAGGCGGCAGCCUUCGGUGGCGCGAUAGAGCCAACGUUCUCAACUAUGACACGCAAAACGCGUGCUCCGUUGAAUGGAGUUUAUCAUG,-1.84
7,GGAUCUUCUCGAUCUAACAACAAAGACAGAUCUGCCACAAAGCGUGAGAGCAUCUUCGGAUGUAGAGUCGGCAGCCUUCGGUGGCGCGAUAGCGCCAACGUUUUCAACUAUGACACGCAAAACGCGUGCUCCGUUGGAUGGAUUUUAUCAUG,≤ -4.2
8,GGAUCUUCUCGAUCUAACAACAAAGCCCAAUCUGCCACAAAGCUUGAGAGCAUCUUCGGAUGCAGAGGCUGCAGCCUUCGGUGGCGCGAUAGCGCCAACGUUCUCACCUAUGACACGCAAAACGCGUGCUCCGUUGAAUGGAGUUUCUCAUG,≤ -4.2
9,GGAUCUUCUCGAUCUAACAACAAAGACAAAUCUGCCUCAAAGCUUGAGAGCAUCUUCGGAUGCAGAGGCGGCAGCUUUCGGUGGCGUGAUAGCGCCAACGUUCUCAACUAUGACACGCAAAACGCGUGCUCCGUUGAAUGGAGUUUAUCAUG,-1.62
10,GGAUCUUCUCGAUCUAACAACAAAGACAAAUCUGCCACAAAGCUUGAGAGCAUCUUCGGAUGCAGAGGCGGCAGCCUUCGGUGGCGCGAUAGCGCCAACGUUCUCAACUAUGACACGCAAAACGCGUGCUCCGUUGAAUGGCGUUUAUCAUG,0.655
11,GGAUCUUCUCGAUCUAACAACAAAGACAAAUCUGCCACACAGCUUGAGAGCAUCUUCGGAUGCAGAGGCGGCAGCCUUCGGUGGCGCGAUAGCGCCAAGGUUCUCAACUAUGACACGCAAAACGCGUGCUCCGUUGAAUGGAGUUUAUCAUG,-0.927
12,GGAUCUUCUCGAUCUAACAACAAAGACAAAUCUGCCACAAAGCUUGAGAGCAUCUUCGGAUGCAGAGGCGGCUGCCUUCGGUGGCGCGAUAGCGCCAACGUUCUCACCUAUGACACGCAAUACGCGUGCUCCGUUGAAUGGAGUUUAUUAUG,≤ -4.2
13,GGAUCUUCUCGAUCUAACAACAAAGACAAAUCUGCCACAAAGCUUGAGAGCCUCUUCGGAUGCAGAGACGGCAGCCUUCGGUGGCGCGAUAGCGCCAACGGUCUCAACUAUGACACGCAAAACGCGUGCUCCGUUGAAUGGAGUUUAUCAUG,≤ -4.2
14,GGAUCUUCUCGAUCUAACAACAAGGACAAAUCUGCCAUAAAGCUUGAGAGCAUCUUCGGAUGCAGAGGCGGCAGCCUUCGGUAGCGCGAUAGCGCCAAUGUUCUCAACUAUGACACGCAAAACGCGUGCUCCGUUGAAUGGAGUUUAUCAUG,≤ -4.2
15,GGAUCUUCUCGAUCUAACAACAAAGACAAAUCUGCCACAAAGCUUGAGAGCAUCUUCGGAUGCAGGGGCGGCAGCCUUCGGUGGCGCGAUAGCGCCAACGUUCUCAACUAUGACACGCAAAACGCGUGCUCCGUUGAAUGGAGUUUAUCAUG,-3.91
16,GGAUCUUCUCGAUCUAACAACAAUGACAAAUCUGCCAGAAAGCUUGAGAGCAUCUUCGGAUGCAGAGGCGGCAGCCUUCGGUGGCGCGAUAGUGCCAACGUUCUCAACUAUGACACACAAAACGCGUGCUCCGUUGAAUGGAGUUUAUCAUG,-2.15
17,GGAUCUUCUCGAUCUAACAACAAAGUCAAAUCUGCCAUAAAGCUUGAGAGCAUCUUCGGAUGCAGAGGCGGCAGCCUUCGGUGGCGGGAUAGCGCCAACGUUCUUAACUAUGACACGCAAAACGCGUGCUCCGUUGAAUGGAGUUUAUCAUG,≤ -4.2
18,GGAUCUUCUCGAUCUAACAACAAUGACAAAUCUGCCACAGAGCUUGAGAGCAUCUUCGGAUGCAGAGGCGGCAGCCUUCGGUGGCGCGAUAGCGCCAACGUUCUCAACUAUGACACGCAAAACGCGUGCUCCGUUGAAUGGAGAUUAUCAUG,-3.76
19,GGAUCUUCUCGAUCUAACAACAAAGACAAAUCUGCCACAAUGCUUGAGAGCAUCUUUGGAUGCAGAGGCGGCAGCCUUCGGUGGCGCGAUAGCGCCAACGUUCUCAACUAUGACACGCUAAACGCGUGCUCCGAUGAAUGGAGAUUAUCAUG,-4.17
